From patent US20150166606A1 (RA PHARMACEUTICALS, published 2015)
Numbered stars: 1 amine (or outer) side, 2 acyl side, 3 side chain; on linkers, the order of the positions; unused ones are H or OH. Bridge positions count the residues as written; N and C are the ends. Square brackets hold non-standard residues; d marks the D form. Ends that are not written are not given here. mXylyl = xylyl linker from dibromoxylene joining the two cysteines; Phe(3-CH2NH2) = O=C([C@H](Cc1cccc(CN[*:3])c1)N[*:1])[*:2]; Ala(1H-tetrazol-5-yl) = N[C@@H](Cc1nnn[nH]1)C(=O)O; des‑NH2 = missing amino-terminal amine group; Phe(4-CH2NH2) = NCc1ccc(C[C@H](N)C(=O)O)cc1; hexyltetrazolyl‑mXylyl = not defined here; η‑ω‑MeR = eta-omega methylated arginine; pXylylene = c1cc(C[*:2])ccc1C[*:1]; NMeE = CN[C@@H](CCC(=O)O)C(=O)O; Chg = N[C@H](C(=O)O)C1CCCCC1; Pen = CC(C)(S)[C@H](N)C(=O)O; Phg = N[C@H](C(=O)O)c1ccccc1; Tle = CC(C)(C)[C@H](N)C(=O)O; hLys = NCCCCC[C@H](N)C(=O)O; oXylyl = ortho-xylyl linker; mLutidine = meta-lutidine; Nva = CCC[C@H](N)C(=O)O; Sar = CNCC(=O)O

B1: R2049 (peptide)
peptide: {des‑NH2}-CICRV-NH2
modifications: linker 1-3 via mXylyl; not fully specified (residue 1); printed as [mXylyl(1,3)](des-NH2)C-ICRV-NH2
B2: R2028 (peptide)
peptide: MCESICRV-NH2
modifications: linker 2-6 via hexyltetrazolyl‑mXylyl; reading uncertain; also: printed as [hexyltetrazolyl-mXylyl(2,6)]MCESICRV-NH2
B3: R2027 (peptide)
peptide: MC[NMeE]ESICRV-NH2
modifications: linker 2-7 via mXylyl; not fully specified; printed as [mXylyl(2,6)]MC-nMeE-ESICRV-NH2

What follows are binders tested against Activated human plasma kallikrein (Enzyme Research Laboratories, HPKa 1303) (human, UniProt P03952 20-638) (assay: cell-based or functional assay).
Activated human plasma kallikrein (Enzyme Research Laboratories, HPKa 1303), sequence (P03952 20-638 limits assumed): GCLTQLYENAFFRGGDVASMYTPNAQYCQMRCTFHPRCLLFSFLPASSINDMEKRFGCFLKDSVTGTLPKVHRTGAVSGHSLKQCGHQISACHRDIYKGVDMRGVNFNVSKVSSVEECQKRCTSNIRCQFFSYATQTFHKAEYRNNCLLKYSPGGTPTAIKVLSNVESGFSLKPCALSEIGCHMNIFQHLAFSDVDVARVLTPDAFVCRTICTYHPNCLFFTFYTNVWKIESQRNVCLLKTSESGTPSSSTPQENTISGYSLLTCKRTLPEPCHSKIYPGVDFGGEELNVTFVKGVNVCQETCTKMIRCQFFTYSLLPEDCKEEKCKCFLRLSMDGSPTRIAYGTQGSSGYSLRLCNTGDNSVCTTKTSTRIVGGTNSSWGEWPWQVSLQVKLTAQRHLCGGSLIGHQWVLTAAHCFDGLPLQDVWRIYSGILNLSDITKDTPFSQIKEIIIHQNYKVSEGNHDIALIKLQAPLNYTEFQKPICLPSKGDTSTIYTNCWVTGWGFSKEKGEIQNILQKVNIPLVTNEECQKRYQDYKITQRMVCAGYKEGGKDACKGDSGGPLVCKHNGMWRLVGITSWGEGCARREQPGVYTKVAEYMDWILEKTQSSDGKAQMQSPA

Binder	Avg. IC50 [nM]
MCESICRA-NH2 (linker 2-6 via mXylyl) [R2016]	3900
MCEAICRV-NH2 (linker 2-6 via mXylyl) [R2018]	37.3
[Nva][Pen]ESICRV-NH2 (linker 2-6 via mXylyl) [R2031]	1460
Ac-CAS[Tle]CR[Tle]-NH2 (linker 1-5 via mXylyl) [R2048]	1400
MCESICRV-NH2 (linker 2-6 via mLutidine) [R2044]	645
MC[Ala(1H-tetrazol-5-yl)]SICRV-NH2 (linker 2-6 via mXylyl) [R2020]	13
MCESICRVN-NH2 (linker 2-6 via mXylyl) [R2014]	37.5
Ac-CESICRVL-NH2 (linker 1-5 via mXylyl) [R2045]	187
MCESICRV-NH2 (linker 2-6 via trans‑butenyl) [R2011]	12800
Ac-[Nva]CESIC[hLys]V-NH2 (linker 2-6 via mXylyl) [R2033]	8650
Ac-CESICRVLK-NH2 (linker 1-5 via mXylyl) [R2038]	299
CAS[Phg]CR[Tle]-NH2 (linker 1-5 via mXylyl) [R2039]	11.9
B1	16300
B2	714
MCESACRV-NH2 (linker 2-6 via mXylyl) [R2017]	2140
Ac-CA[Sar][Phg]CR[Tle]-NH2 (linker 1-5 via mXylyl) [R2052]	74.2
MCASICRV-NH2 (linker 2-6 via mXylyl) [R2024]	41.9
[Nva][Pen]ESI[Pen]RV-NH2 (linker 2-6 via mXylyl) [R2034]	> 100000
MCESICRV-NH2 (linker 2-6 via pXylylene) [R2043]	617

Binder	Avg. IC50 [nM]
[Nva]CES[Phg]CR[Tle]-NH2 (linker 2-6 via mXylyl) [R2013]	6.8
Ac-CESICRVLR-NH2 (linker 1-5 via mXylyl) [R2046]	59.3
[Nva]CESIC[Phe(4-CH2NH2)]V-NH2 (linker 2-6 via mXylyl) [R2021]	2000
Ac-MCES[Chg]CRV-NH2 (linker 2-6 via mXylyl) [R2050]	11
MCESICR-NH2 (linker 2-6 via mXylyl) [R2015]	16500
[Nva]CESI[Pen]RV-NH2 (linker 2-6 via mXylyl) [R2032]	1030
Ac-[Nva]CESIC[η‑ω‑MeR]V-NH2 (linker 2-6 via mXylyl) [R2054]	5000
[Nva]CESICRF-NH2 (linker 2-6 via mXylyl) [R2035]	7200
MCESICRV-NH2 (linker 2-6 via 3‑methoxy‑mXylyl) [R2102]	39.7
Ac-CSICRV-NH2 (linker 1-4 via mXylyl) [R2037]	410
[Nva]CESIC[Phe(3-CH2NH2)]V-NH2 (linker 2-6 via mXylyl) [R2022]	21000
MCETICRVLKYSD-NH2 (linker 2-6 via mXylyl) [R2005]	1.8
MCESICRV-NH2 (linker 2-6 via oXylyl) [R2042]	3190
MCESICKV-NH2 (linker 2-6 via mXylyl) [R2040]	733
[Nva]CESIC[hLys]V-NH2 (linker 2-6 via mXylyl) [R2029]	8840
B3	990
Ac-CAS[Phg]C[Phe(4-CH2NH2)][Tle]-NH2 (linker 1-5 via mXylyl) [R2053]	5340
ACESICRV-NH2 (linker 2-6 via mXylyl) [R2025]	9.5
